From patent US20230242956A1, “POLYPHOSPHATE KINASE MUTANT, ENGINEERED STRAIN AND APPLICATION THEREOF” (ZHEJIANG UNIVERSITY OF TECHNOLOGY, priority 2022, published 2023)
Residue numbers refer to the chain shown, from its start. Names and notes keep the numbering of the source.

B1: Cytophaga hutchinsonii polyphosphate kinase (ChPPK), wild-type, C-terminal 6His tag, SEQ ID NO: 2 (Cytophaga hutchinsonii ATCC 33406) (protein)
chain: MATDFSKLSKYVETLRVKPKQSIDLKKDFDTDYDHKMLTKEEGEELLNLGISKLSEIQEKLYASGTKSVLIVFQAMDAAGKDGTVKHIMTGLNPQGVKVTSFKVPSKIELSHDYLWRHYVALPATGEIGIFNRSHYENVLVTRVHPEYLLSEQTSGVTAIEQVNQKFWDKRFQQINNFEQHISENGTIVLKFFLHVSKKEQKKRFIERIELDTKNWKFSTGDLKERAHWKDYRNAYEDMLANTSTKQAPWFVIPADDKWFTRLLIAEIICTELEKLNLTFPTVSLEQKAELEKAKAELVAEKSSDHHHHHH
B2: Cytophaga hutchinsonii polyphosphate kinase (ChPPK) mutant A79G/S106C/I108F/L285P (parent SEQ ID NO: 2) (Cytophaga hutchinsonii ATCC 33406; … (protein)
chain: B1 chain with A79G, S106C, I108F, L285P

Legend:
[1] = substrate: Nc1ncnc2c1ncn2[C@@H]1O[C@H](COP(=O)(O)O)[C@@H](O)[C@H]1O; test: Kinetic parameters of wild-type ChPPK (pure enzyme, pseudo-one-substrate kinetic model, ATP by HPLC); format: biochemical, Cytophaga hutchinsonii; conditions: other: substrate AMP, fixed PPA 1.6 g/L, AMP 0-5.0 mM, pH 7.5, 37° C.
Method: A PPK protein sequence derived from Cytophaga hutchinsonii (ChPPK, GenBank accession number: ABG57400.1) in GenBank was optimized for E. coli codon preference and fused to a C-terminal 6His tag. The resulting recombinant sequence of the gene ChPPK with a length of 930 bp was synthesized by Tsingke Biotechnology Co., Ltd. (Beijing, China), the nucleotide sequence is shown in SEQ ID NO: 1, and the amino acid sequence of the encoded protein is shown in SEQ ID NO: 2.
(2) Pure enzyme: 5 mL of the crude enzyme solution was diluted with 40 mL of potassium phosphate buffer (20 mM, pH 7.2), and then applied to a HisTrap HP purification column of GE Healthcare (10 mL column, pre-washed with a pH 7.2, 20 mM potassium phosphate buffer containing 500 mM NaCl). […] The concentration of the pure enzyme was determined by Beyotime BCA Protein Assay Kit(P0012), and the amount of the pure enzyme used in the following examples was calculated by protein content.
0.4 mg of the crude enzyme solution prepared by the method in Example 2 or 0.05 mg of the pure enzyme, polyphosphoric acid (PPA) at a final concentration of 1.6 g/L, adenosine phosphate (AMP) at a final concentration of 2.25 mM, and MgCl2 at a final concentration of 10 mM were added to 10 mL of 50 mM potassium phosphate buffer (pH 7.5). […] The ATP content in the solution was determined by HPLC method. […]
(§1) The wild-type Ecoli.BL21(DE3)-ChPPK constructed by the method of Example 1 and the engineered strain Ecoli.BL21(DE3)-ChPPK/A79G/S106C/I108F/L285P constructed by the method of Example 6 were used to prepare pure enzymes by the method of Example 2. Km and Kcat were calculated by pseudo-one-substrate kinetic model. […]

[2] = substrate: Nc1ncnc2c1ncn2[C@@H]1O[C@H](COP(=O)(O)O)[C@@H](O)[C@H]1O; test: Kinetic parameters of mutant ChPPK/A79G/S106C/I108F/L285P (pure enzyme, pseudo-one-substrate kinetic model, ATP by HPLC); format: biochemical, Cytophaga hutchinsonii; conditions: other: substrate AMP, fixed PPA 1.6 g/L, AMP 0-5.0 mM, pH 7.5, 37° C.
Method: (2) Pure enzyme: 5 mL of the crude enzyme solution was diluted with 40 mL of potassium phosphate buffer (20 mM, pH 7.2), and then applied to a HisTrap HP purification column of GE Healthcare (10 mL column, pre-washed with a pH 7.2, 20 mM potassium phosphate buffer containing 500 mM NaCl). The resulting purification column was eluted with 100 mL of washing buffer (a pH7.2, 20 mM potassium phosphate buffer containing 500 mM sodium chloride and 50 mM imidazole) at a rate of 0.5 mL/min to remove the absorbed protein impurities, and then eluted with an elution buffer (a pH7.2, 20 mM potassium phosphate buffer containing 500 mM sodium chloride and 50 mM imidazole) at a speed of 0.5 mL/min to collect an elution solution containing the target protein. Then the elution solution containing the target protein was dialyzed in a dialysis bag (the MWCO of the dialysis bag was 14 KDa) with a pH7.2 of 20 mM potassium phosphate buffer for 48h, and the retentate was taken as pure enzyme. The concentration of the pure enzyme was determined by Beyotime BCA Protein Assay Kit(P0012), and the amount of the pure enzyme used in the following examples was calculated by protein content.
0.4 mg of the crude enzyme solution prepared by the method in Example 2 or 0.05 mg of the pure enzyme, polyphosphoric acid (PPA) at a final concentration of 1.6 g/L, adenosine phosphate (AMP) at a final concentration of 2.25 mM, and MgCl2 at a final concentration of 10 mM were added to 10 mL of 50 mM potassium phosphate buffer (pH 7.5). The reaction solution was incubated at 37° C. for 5 min, and then 10 mL of 0.2 M phosphoric acid solution was added to terminate the reaction. The ATP content in the solution was determined by HPLC method. […]
as §1

Protein | Km [1] [µM] | kcat [1] [s⁻¹] | kcat/Km [1] [M⁻¹ s⁻¹] | Km [2] [µM] | kcat [2] [s⁻¹] | kcat/Km [2] [M⁻¹ s⁻¹]
B1 | 1660 ± 100 | 1.01 ± 0.05 | 610 |  |  | 
B2 |  |  |  | 1670 ± 180 | 16.3 ± 1.78 | 9780
